Legend:
NHase-(BA)P14K = target: T1, NHase-(BA)P14K (Pseudomonas putida, UniProt P97051+P97052); assay: product tolerance: 3-cyanopyridine consumption with / without nicotinamide; type: biochemical; conditions: 20 mM 3-cyanopyridine, 10 min
T1 construct: gene nthB; pET28a, E. coli
T1 sequence (P97052 1-217): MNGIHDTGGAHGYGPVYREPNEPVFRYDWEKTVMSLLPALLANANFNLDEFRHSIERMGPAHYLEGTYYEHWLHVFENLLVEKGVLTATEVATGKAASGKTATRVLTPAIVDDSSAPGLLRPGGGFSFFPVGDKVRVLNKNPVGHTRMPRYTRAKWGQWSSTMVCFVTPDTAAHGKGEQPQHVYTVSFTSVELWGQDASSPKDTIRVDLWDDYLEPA
T1 sequence (P97051 1-210): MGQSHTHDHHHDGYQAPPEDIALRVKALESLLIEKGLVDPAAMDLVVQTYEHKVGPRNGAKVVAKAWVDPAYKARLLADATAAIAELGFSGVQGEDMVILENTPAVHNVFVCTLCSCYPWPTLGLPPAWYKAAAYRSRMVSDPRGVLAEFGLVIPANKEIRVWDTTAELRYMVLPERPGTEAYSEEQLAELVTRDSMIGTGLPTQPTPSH

wild-type NHase = target: T2, wild-type NHase (Pseudomonas putida, UniProt P97051+P97052); assay: as above; type: biochemical; conditions: 20 mM 3-cyanopyridine, 10 min
T2 construct: gene nthA; tetramer alpha2beta2; EC 4.2.1.84; tag not clearly stated
T2 sequence (P97051 1-210): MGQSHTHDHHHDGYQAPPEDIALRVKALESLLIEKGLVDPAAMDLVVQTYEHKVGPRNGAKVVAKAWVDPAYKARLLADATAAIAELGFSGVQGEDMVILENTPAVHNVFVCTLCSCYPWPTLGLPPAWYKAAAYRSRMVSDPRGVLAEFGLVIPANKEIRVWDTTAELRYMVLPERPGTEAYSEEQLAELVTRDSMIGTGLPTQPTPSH
T2 sequence (P97052 1-217): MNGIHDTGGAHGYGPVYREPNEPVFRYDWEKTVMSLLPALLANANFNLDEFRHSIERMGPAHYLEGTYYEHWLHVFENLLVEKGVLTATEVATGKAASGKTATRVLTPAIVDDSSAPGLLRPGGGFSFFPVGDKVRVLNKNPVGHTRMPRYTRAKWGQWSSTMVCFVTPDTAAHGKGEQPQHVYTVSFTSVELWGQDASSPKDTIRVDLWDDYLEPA

NHase-(BAP14K) = target: T3, NHase-(BAP14K) (Pseudomonas putida, UniProt P97051+P97052); assay: as above; type: biochemical; conditions: 20 mM 3-cyanopyridine, 10 min
T3 construct: gene nthB; pET28a, E. coli; cobalt-loaded
T3 sequence (P97052 1-217): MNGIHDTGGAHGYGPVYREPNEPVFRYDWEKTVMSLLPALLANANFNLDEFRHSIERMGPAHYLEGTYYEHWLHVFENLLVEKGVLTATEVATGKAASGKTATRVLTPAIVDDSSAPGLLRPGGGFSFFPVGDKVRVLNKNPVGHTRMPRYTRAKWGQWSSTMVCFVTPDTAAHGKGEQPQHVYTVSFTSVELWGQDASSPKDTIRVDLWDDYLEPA
T3 sequence (P97051 1-210): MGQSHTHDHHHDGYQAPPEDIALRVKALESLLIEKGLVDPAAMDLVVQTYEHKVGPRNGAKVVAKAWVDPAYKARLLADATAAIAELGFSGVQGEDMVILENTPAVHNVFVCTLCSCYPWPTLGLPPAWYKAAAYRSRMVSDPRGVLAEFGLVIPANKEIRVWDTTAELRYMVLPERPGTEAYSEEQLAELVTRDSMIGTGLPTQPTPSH
T3 sequence (O69769 1-127 partner): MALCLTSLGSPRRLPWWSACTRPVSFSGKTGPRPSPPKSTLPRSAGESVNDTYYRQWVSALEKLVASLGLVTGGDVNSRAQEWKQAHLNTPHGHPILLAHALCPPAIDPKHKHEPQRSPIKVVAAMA

[1] = target: the molecule itself; assay: SEC; purified enzymes and marker proteins on a Superdex 200 10/300 GL column, 10 mM KPB; mass from the standard curve of marker proteins, oligomer inferred from the mass
[2] = substrate: N#Cc1cccnc1; assay: nicotinamide formation, A215; type: biochemical, Pseudomonas putida; conditions: 10 mM KPB, 25 °C, 2 min, 10-200 mM substrate, cobalt enzyme
Description: nicotinamide formation, A215 on wild-type NHase

For `NC(=O)c1cccnc1` [nicotinamide], the “reduction ratio (with / without 0.5 M nicotinamide)” value (NHase-(BA)P14K) was 0.86, the “reduction ratio (with / without 0.5 M nicotinamide)” value (wild-type NHase) was 0.80 and the “reduction ratio (with / without 0.5 M nicotinamide)” value (NHase-(BAP14K)) was 0.83.

B1: NHase-(BA)P14K, fusion nitrile hydratase encoded by the gene (BA)P14K (enzyme, Pseudomonas putida NRRL-18668)
chain: MNGIHDTGGAHGYGPVYREPNEPVFRYDWEKTVMSLLPALLANANFNLDEFRHSIERMGPAHYLEGTYYEHWLHVFENLLVEKGVLTATEVATGKAASGKTATRVLTPAIVDDSSAPGLLRPGGGFSFFPVGDKVRVLNKNPVGHTRMPRYTRAKWGQWSSTMVCFVTPDTAAHGKGEQPQHVYTVSFTSVELWGQDASSPKDTIRVDLWDDYLEPAPGMGQSHTHDHHHDGYQAPPEDIALRVKALESLLIEKGLVDPAAMDLVVQTYEHKVGPRNGAKVVAKAWVDPAYKARLLADATAAIAELGFSGVQGEDMVILENTPAVHNVFVCTLCSCYPWPTLGLPPAWYKAAAYRSRMVSDPRGVLAEFGLVIPANKEIRVWDTTAELRYMVLPERPGTEAYSEEQLAELVTRDSMIGTGLPTQPTPSH
notes: β-subunit of the cobalt nitrile hydratase of Pseudomonas putida NRRL-18668 (B gene); MALDI-TOF indicated the full length of βα; linker, dipeptide proline-glycine; α-subunit of the cobalt nitrile hydratase of Pseudomonas putida NRRL-18668 (A gene); Same polypeptide as m1 but made with P14K co-expressed from the same plasmid; cobalt-containing (0.84 per βα); P14K is not part of the purified enzyme; …
In the case of B1, the “stoichiometry N” value [1] is reported as 2.

B2: wild-type NHase (Pseudomonas putida) (protein)
chain 1: MGQSHTHDHHHDGYQAPPEDIALRVKALESLLIEKGLVDPAAMDLVVQTYEHKVGPRNGAKVVAKAWVDPAYKARLLADATAAIAELGFSGVQGEDMVILENTPAVHNVFVCTLCSCYPWPTLGLPPAWYKAAAYRSRMVSDPRGVLAEFGLVIPANKEIRVWDTTAELRYMVLPERPGTEAYSEEQLAELVTRDSMIGTGLPTQPTPSH
chain 2: MNGIHDTGGAHGYGPVYREPNEPVFRYDWEKTVMSLLPALLANANFNLDEFRHSIERMGPAHYLEGTYYEHWLHVFENLLVEKGVLTATEVATGKAASGKTATRVLTPAIVDDSSAPGLLRPGGGFSFFPVGDKVRVLNKNPVGHTRMPRYTRAKWGQWSSTMVCFVTPDTAAHGKGEQPQHVYTVSFTSVELWGQDASSPKDTIRVDLWDDYLEPA
notes: tetramer alpha2beta2; EC 4.2.1.84; tag not clearly stated
B2 gave a Km [2] of 41.2 ± 7.7 mM, a kcat [2] of 335 ± 57.6 s⁻¹ and a kcat/Km [2] of 8100 M⁻¹ s⁻¹.

Source: article PMC4709657, “Construction of a subunit-fusion nitrile hydratase and discovery of an innovative metal ion transfer pattern” (Scientific Reports, 2016)
